This data set in a line: label from the status in PepcDB records.
Regarding “MRHFDASQPLRVAVLGTGFGSKVHIPALQHHSETTVQAVYHRQPDRAAAIAVQFGIPNAYSDLDQLLADPAIEAVTIASPPFLHYPMAWAALSAGKSVLLEKPTTLNVEEARALWKLASSQGLTVTLDFEYRFVPAWQYVAELLAEGVIGQPWLVKLDWLMSSRADASRPWNWYALRSQGGGALGALGSHSFDYLAWLFGPARRLQARLFTAIQERPDATTGELKPVDSDDTDLIQLELAEGVPCQISLSSVFRQGRGHWLEVYGDRGTLILGSSNQKDYVHGFQVWFASAGQALQELTVPQRLAFRQEFADGRLAPFLRVVDHWLADLRHGQMTAPSLKEGLYSQLLIDLCWQSQRSGEWQTVPELNRFLLEHHHHHH”, the protein production result is “failed”.

For the sequence “PDRAWINRCRTLSEHTDKAVRAQLAAHPKATGLHVAAAVMDALTDGDQLLLGASNPVRDAALVSYPAPKIRVLSNRGVAGIDGTVSAAVGAALAYEEGRTVALLGDLTFLHDASGLLIGSGEPRPRDLTIVVANDDGGGIFELLEQGDPQYAGVFERVFGTPHGMDLAALCAAYRVEHHLVGLGELSTRLSAPEAPGDRGIRVLEVTTERSGLRELHAAVRAQL”, the protein production entry was “failed”.

On to “VRQKGIDIIFMLDISNSMLARDTAPDRLTHAKTELLQISRRLGDGRKALLLFAGTPVVQCPLTDDEEDFEILLDMAAPELITTQGTDYRRAFDAALKLTNSGGELSSNETVLVLASDGEDHGNDLGDIATAMKTRGVHLHVIGVGGVQPVPIPMQGGPKRDQQGKIVLTSFKPEPLASLIKTAKGKFYYSRPDAPVHDAVADDIAAEAAEARW”, for which the protein production result is given as “failed”.

As for “MTEILPHVNDEVLPAEYELNQPEPEHCPGPESDMAGKSDACGGCANKEICESLPKGPDPDIPLITDNLSGIEHKILVLSGKGGVGKSTFAAMLSWALSADEDLQVGAMDLDICGPSLPHMLGCIKETVHESNSGWTPVYVTDNLATMSIQYMLPEDDSAIIWRGSKKNLLIKKFLKDVDWDKLDYLVIDTPPGTSDEHISINKYMRESGIDGALVVTTPQEVALLDVRKEIDFCKKAGINILGLVENMSGFVCPNCKGESQIFKATTGGGEALCKELGIKFLGSVPLDPRIGKSCDMGESFLDNYPDSPASSAVLNVVEALRDAVGDV”, the protein production entry is “failed”.

In the case of “KRGRSVLVLDHAKKPGRKILISGGGRCNFTNYDVSASNYLCQNPHFVKSALSQYTNWDFISMVSKHGIEFEERDHGQLFCVDAFTAKDIVKMLLAECDMPNIQQRYQCDVHTIEKTEEGFRLHAGTEPVECESLVVATGGLSMPKLGATPFGYKVAEQ”, the protein production entry is reported as “failed”.

In the case of “MEVYTTENEQVDVLRRFLAENGKALVVGVVLGVGALVGWRFWQSHQNDSVQAASASYQQVTEQLAEGKAEAIASTEKFTAENKNTYGALASLELARHYVDQKDFAKAVQQLVQAQSQTKDADLLAVVNLRLARVQLQENKADDALKTLDAIKLEGWASQAAEVRGDILASKGDNQAARDAYNKGLSSNPSQAQQALLRMKLNNLSS”, the protein production result was “failed”.

Turning to “VGRLDDLKRSPLFQNVPEDAMREALKVVTERNFQPDELVVEQDAEGEALHLVTTGVVRVSRVSLGGRERVLGDIYAPGVVGETAVLAHQERSASVRALTPVRTLMLHREHFELILRRHPRVLWNLAEMLARRVTFLNDELIAFGQNTEAALTHVFANLYRQRLAAGVPQPEVLPLGTQDIMARTSSSRETVSRVLKRLEAHNILEVSPRSVTLLDLAALEALSFEGAETD”, the protein production result is on record as “not failed”.

In the case of “MYVFFSKDYLSKQEQSIWEQSFLRGNLMKAVVIGAGEVGYHIAKFLSLTHDVIVIENDEDALRRADELDVQVVEGNGANADILASVLPDVDILVAVTGVDEVNIVACMTAKLILRAHPGWKETKTIARVSNPDYIDVPVTSRAQVGVDIMICPELALASEVAEVLSNPSAIDAEMFAGGKVQMMEFAIRPDNRLVGKRMQDIELEDCCIVSAIFRNNDIIIPHGDDFIKANDHMVVVGKPRAMADLENVFGNEGPHRNRILLIGCGIVGFYLAKIIDKDENADLKVIEYRKSRCIEVAEMLENALILNGDGTDVNLLREENIEDMDVVIAVTDNDEKNLLCSLLAKQMGAKKVIARADRSDYVPLFEMVGIDIAVSPREATVNEVLKLTMGKGIEALATIEGEKAEIIEYTASGQSKIVGKPLSKIKFPKGAIVTMVVHDDDVIIPRGEFIIREGDRVIIFALSSAVRSVEKLFK”, the protein production entry is “failed”.

As to “MSLSQNAPKSKGIKREELKKQYEDVEDEEEIGSDDDLTRGKRRKTEKEKQKLEESELVEMKKLENLIFGSLYSPVTFGKEEEEDGSALFHVDRSAVRQIPDYEDDGDDDEELSDEENGQVVAIRKGEAAWEDEEEKQINVDIASVNRLRKLRKEENEGLISGSEYIARLRAHHAKLNPGTDWARPDSQIVDGESSDDDDTQDGGVDDILRTNEDLVVKSRGNKLCAGRLEYSKLVDANAADPSNGPINSVHFHQNAQLLLTAGLDRRLRFFQIDGKRNTKIQSIFLEDCPIRKAAFLPNGSQVIVSGRRKFFYSFDLEKAKFDKIGPLVGREEKSLEYFEVSQDSNTIAFVGNEGYILLVSTKTKELIGTLKMNGSVRSLAFSEDGKHLLSSGGDGQVYVWDLRTMKCLYKGVDEGSTCGTSLCSSLNGALFASGTDRGIVNIYKKSEFVGGKRKPIKTVDNLTSKIDFMKFNHDAQILAIVSTMNKNSVKLVHVPSLTVFSNWPPPNSTMHYPRCLDFSPGSGFMAMGNAAGKVLLYKLHHYQNA”, the protein production result is listed as “failed”.

Turning to “THANIQGLVKHVDYMAFSDQDTFLSVSNYAFDAFTFDFYASMLNAARLIIADEHTLLDTERLTDLILQENVNVMFATTALFNLLTDAGEDWMKGLRCILFGGERASVPHVRKALRIMGPGKLINCYGPTEGTVFATAHVVHDLPDSISSLPIGKPISN”, the protein production entry is recorded as “failed”.

For the sequence “SEEPPVREEEEEEGEEDEERDEVGPEGALGKSPFQLTAEDVYDISYLLGRELMALGSDPRVTQLQFKVVRVLEMLEALVNEGSLALEELKMERDHLRKEVEGLRRQSPPASGEVNLGPNKMVVDLTDPNRPRFTLQELRDVLQERNKLKSQLLVVQEELQCYKSGLIPPREGPGGRREKDAVVTSAKNAGRNKEEKTIIKKLFFFRSGKQT”, the protein production entry is listed as “failed”.

On to “MARKKITLVGAGNIGGTLAHLALIKQLGDVVLFDIAQGMPNGKALDLLQTCPIEGVDFKVRGTNDYKDLENSDVVIVTAGVPRKPGMSRDDLLGINIKVMQTVGEGIKHNCPNAFVICITNPLDIMVNMLQKFSGVPDNKIVGMAGVLDSARFRTFLADELNVSVQQVQAYVMGGHGDTMVPLTKMSNVAGVSLEQLVKEGKLKQERLDAIVSRTRSGGGEIVALLKTGSAYYAPAAAGIQMAESFLKDKKMILPCAAKVKAGMYGLDEDLFVGVPTEISANGVRPIEVEISDKEREQLQVSINAIKDLNKAAAEILAK”, for which the protein production result is given as “not failed”.

As to “MIKVEKEVSNDYIIKGFKHFTQLATEYFQGHPDCNAARKRMRDTIDANLQLKAELTAASYTEHTTLLSPKMQQIIWAHWGPPIISLSENHANELEHHHHHH”, the protein production result is recorded as “failed”.

For the sequence “MTTPSRRILILVGHPDPAPERFCRALAEAYAQGAMEGGHEVRRADIGSMDIALLESQAAFQVDDAPQSIRDLRADIVWAEHLVLVFPLWLGGAPAKLKAALEQVCRGGFGFEVGPRGWSSKLAGRSARMVLTMGMPSAIFRLVFGSHGLKAVTQGIFMLAGVKPRRASIIGGVEAIGAGGRSRWLKRMGHLGEAAR”, the protein production entry is listed as “failed”.

Consider “METLSNSILTVQIAEHGAELQSIKKDGKEYLWQGDAKFWGRRSPVLFPIVGRVWNNKYRHAGNTYEIGQHGFARDMDFKLTYKEDKGAVYWLESTPDTLGKFPFPFRLLVGYLLEENKITVKWRVENLGAMDMYFQIGAHPAFYFPEFDAATKDRGFFVFDRKSDLEYIMPTEKGCVSPERHVLKLNKEGLMPIDIHTFDCDTYIFDNKQLKKITLLDKKKKPHISLEFNSPLVALWSPTKTHPDCPFVCIEPWYGRCDSVGYSGELKDREWIQKLEPKETFDVEYKIIIE”, for which the protein production entry is “failed”.

On to “MVDIHSHIIPGIDDGSNSLETTLKMMEIANEAGLTKMVATSHYFRGRFENSISAITSEAEKLNSIFKKKAVDIEVIPGQEVFIDNHTLEAHKNGIIGCIRDTNYMLVEFDMMSLLENAADILYEIQIRGIKPIIAHPERYTYIQRDLYKINDLIDENIYFQVNAGSIEGLFGKTVQKTAIKLIEEGLVSFIASDAHSAGKRCPGYEGALKLVAKIDSVLPGKFVKNADLLIENQEIKARSQKLKRKKGFFTFFK”, for which the protein production result is listed as “failed”.

In the case of “MARSQQFPSSTAVSVSPPAASSIAKPPQPVLDGLWAFAPNRDTLGGTAYFLKLPQGNWLIDAPAWHGETQAFVEEQGGLQGVFLTHRGAFGKAIAIQQHFDCDLVVQEQEAYLLPGANVTTFEQEQAIAPALTAIWTCGHSPGSACLYWEGHGGVLFTGRHLLPTRAGGVAPLRTAKTFHWPRQIRNTQMLCDRFSSETLAWICPGASSGFLRGRKAIASAYMQLQQLDWSALSEAQPLL”, the protein production entry is reported as “failed”.

As to “MGSSLPFDLILEILQRTPAESLLRFKSTCKKWYELISNDKRFMYKHLDKSTKRFLRIENRERVQILDPVTEILAVSTIPNELRHKYFTLIHCDGLMLGMCYEELGSDPNLAVWNPVMRKIKWIKPSPPLVCYWGSDYLGFGYDKTFRDNYKILRFTYLGDDDDDESYPKCQIYEFNSGSWRSIEAKFDGEIDVEVDGVSVNGSMYWIELQEKKNFILSFDFSKETFNRICDSPLYWDIKRLGCFNGDRLSLLQQNEATREIHVSVTNKLSDEVVSFSRYFSVTLPDIPLFRSIDILPLPGCFIGKNRNIIAWCEQLVGKYDDHTSIILYEIGEGGVTKRIRTGRHEADEDYNDLDNCSYVYVPSLIPVPE”, the protein production result is listed as “failed”.

Regarding “MQEIEIFCDGSSLGNPGPGGYAAILRYKDKEKTISGGEEFTTNNRMELRALNEALKILKRPCRITLYSDSQYVCQAINVWLANWQKKNFSKVKNVDLWKEFLEVSKGHSIVAVWIKGHNGHAENERCDSLAKLEAQKRVKTTT”, the protein production entry was “failed”.

With “MKRSLRVGSVAGIGIFLHWTFLLLVAAIFAYYYVQSQSLGAALSGMGLILGVFVCVILHELGHALTARRFGVPTRSITLYPIGGLARLERIPSEPMKEFWIAIGGPAVNVVIAFALALVLLVTGGTLAPVALEAPGSHALASLMWINAVLAVFNMLPAFPMDGGRVLRALLALRWDYAQATQTAANVGQGMAVLFGLIGIMTWNPVLLFIALFVYVGAQQESKQAMYRAFTEGTPVREAMVTRFATLTVDDTLDDAVDALLAGTDHDFPVLEAGTVVGLLRRKQLIQALSEHGRDTPVAEVADADCFTTAPSAPLDEVFQQMNARSCSTVPVVDGGQLVGLLTLENVGELIMVSSALETRSHSRVPRDQLSEAPLRERPDGAASSGAPPVP”, the protein production result is reported as “failed”.

Take “MPIKARETDMATRFKGLSAFPITPADEAGRVDIEAFSALIARLDAAEVDSVGILGSTGIYMYLTREERRRAIEAAATILRGRRTLMAGIGALRTDEAVALAKDAEAAGADALLLAPVSYTPLTQEEAYHHFAAVAGATALPLAIYNNPTTTRFTFSDELLVRLAYIPNIRAIKMPLPADADYAGELARLRPKLSDDFAIGYSGDWGCTDATLAGGDTWYSVVAGLLPVPALQLMRAAQAGNAEEAKRLDATFQPLWALFKEFGSIRVIYAAANILSLTVSEPPRPILPLTSAERQRVEEALEALSALETAP”: the protein production entry was “not failed”.

“MSLKARLALFFALSIGLALFFQGALSYVAFKGLLEADLDRSLLFYARALAEGRPSPRGEFAFRLAQGGAETKSPNFPDLPPLAPGRYWKEGWRVWVLEAPGGTLTVARYEPEALLALSRFRLVLFASGAALTLAFALLAGHLAGVALRPLSRLTEVARRVADSQDLSHRVPPEGGGELKTLAEAFNHMLERLEAFLEREKRFTRDAAHELRTPVAAALAQLEAAEGGYLSEGEALQATKEELLRMKRLVEALLVLAREGRVTPVPLDLAALAREEARAFGVPYRGPETLPYEGDPLLLAQALRNLLRNAFLHGEGKGVEVRLSQEGEDLVLEVKDEGPGMPEEALKEAGRPFFRASPKPGEGLGLSVAKKVAEAHGGALVLVPRKPTGLTARLLLPANPRLTGTP”: the protein production result is on record as “failed”.

Values taken from a protein production outcome set (Wang et al. 2014).
